± gives the uncertainty stated by the source.
Experiment: self-splicing fitness, log relative to wild type (ln ratio); higher = more splicing; Tetrahymena group I intron in knt gene, E. coli kanamycin selection, DiMSum; sequences stand for … in CUCUCU…GGAGGGAAAAGUUAUCAGGCAUGCACCUGGUAGCUAGUCUUUAAACCAAUAGAUUGCAUCGGUUUAAAAGGCAAGACCGUCAAAUUGCGGGAAAGGGGUCAACAGCCGUUCAGUACCAAGUCUCAGGGGAAACUUUGAGAUGGCCUUGCAAAGGGUAUGGUAAUAAGCUGACGGACAUGGUCCUAACCACGCAGCCAAGUCCUAAGUCAACAGAUCUUCUGUUGAUAUGGAUGCAGUUCACAGACUAAAUGUCGGUCGGGGAAGAUGUAUUCUUCUCAUAAGAUAUAGUCGGACCUCUCCUUAAUGGGAGCUAGCGGAUGAAGUGAUGCAACACUGGAGCCGCUGGGAACUAAUUUGUAUGCGAAAGUAUAUUGAUUAGUUUUGGAGUACUCGUGGUCG
Method in brief: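 Library with all eight P1ex-region intron nucleotides randomised, intron inside the knt kanamycin-resistance gene on pET-22b(+), in E. coli BL21(DE3). Cells grew overnight at 37°C or 30°C on LB agar with or without 25 μg/mL kanamycin (plus 100 μg/mL carbenicillin, 50 μM IPTG, 0.2% rhamnose), in six replicate transformations. Pooled colonies were amplicon-sequenced on Illumina HiSeq 2500. DiMSum fitness is the error-weighted combination of wild-type-normalised replicate fold changes, kanamycin versus none.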

Row | Sequence | self-splicing fitness (ln) (30 °C) | self-splicing fitness (ln) (37 °C)
1 | AAAGAGCAAUAUUACGCAAA | -3.16 ± 0.43 | -2.75 ± 0.34
2 | UCCGAGCAAUAUUACGCCGG | -2.87 ± 0.36 | -2.15 ± 0.28
3 | UACGAGCAAUAUUACGAGAG | -3.93 ± 0.28 | -2.8 ± 0.22
4 | GAGUAGCAAUAUUACGACGC | -0.488 ± 0.12 | 0.137 ± 0.14
5 | GCAGAGCAAUAUUACGGGCG | -3.2 ± 0.17 | -0.961 ± 0.14
6 | UGAAAGCAAUAUUACGUAGC | -3.52 ± 0.37 | -1.5 ± 0.36
7 | GGAGAGCAAUAUUACGGUAC | -3.27 ± 0.5 | -2.07 ± 0.24
8 | GAACAGCAAUAUUACGAAUC | -1.76 ± 0.08 | -1.9 ± 0.13
9 | GCCGAGCAAUAUUACGUGUG | -1.43 ± 0.07 | -0.815 ± 0.081
10 | GAAGAGCAAUAUUACGACAG | -3.36 ± 0.29 | -2.76 ± 0.28
11 | CUCUAGCAAUAUUACGAUGG | -3.61 ± 0.19 | -1.91 ± 0.14
12 | UUUCAGCAAUAUUACGGCAA | -0.476 ± 0.089 | -0.0559 ± 0.11
13 | CAGCAGCAAUAUUACGAUUA | -1.77 ± 0.1 | -1 ± 0.11
14 | CUGAAGCAAUAUUACGCUUU | -3.4 ± 0.31 | -3.78 ± 0.42
15 | AAAUAGCAAUAUUACGUGUA | -2.49 ± 0.091 | -1.44 ± 0.09
16 | UCUAAGCAAUAUUACGAUCG | -1.06 ± 0.099 | -0.234 ± 0.1
17 | AAGCAGCAAUAUUACGGUGG | -3.64 ± 0.18 | -1.98 ± 0.17
18 | GGUCAGCAAUAUUACGGUAC | 0.214 ± 0.15 | 0.298 ± 0.17
19 | AUGAAGCAAUAUUACGCCAG | -0.726 ± 0.13 | 0.273 ± 0.18
20 | AUCUAGCAAUAUUACGUGAU | -1.16 ± 0.14 | -2.25 ± 0.32
21 | CUGUAGCAAUAUUACGCGGG | -3.04 ± 0.24 | -2.07 ± 0.31
22 | GCCGAGCAAUAUUACGGUAC | -2.88 ± 0.15 | -0.908 ± 0.24
23 | GAGAAGCAAUAUUACGGUGA | -1.88 ± 0.15 | -0.755 ± 0.15
24 | AUGUAGCAAUAUUACGGUCG | -1.44 ± 0.12 | -1.59 ± 0.17
25 | AUGUAGCAAUAUUACGUAUG | -3.84 ± 0.29 | -3.16 ± 0.28
26 | UCGUAGCAAUAUUACGACUC | – | -1.34 ± 0.31

Row | Sequence | self-splicing fitness (ln) (30 °C) | self-splicing fitness (ln) (37 °C)
27 | GUCCAGCAAUAUUACGGCUG | -3.93 ± 0.31 | -3.61 ± 0.39
28 | CUAGAGCAAUAUUACGGCUC | -2.94 ± 0.25 | –
29 | CUUCAGCAAUAUUACGUAAG | -0.469 ± 0.084 | -0.514 ± 0.1
30 | UCUAAGCAAUAUUACGUAAU | -3.41 ± 0.2 | -1.66 ± 0.19
31 | CGGUAGCAAUAUUACGUCCA | 0.282 ± 0.15 | 0.197 ± 0.23
32 | CAUGAGCAAUAUUACGAAGG | -3.17 ± 0.19 | -2.05 ± 0.21
33 | CCCAAGCAAUAUUACGUCAC | -3.87 ± 0.2 | -2.82 ± 0.15
34 | CAAAAGCAAUAUUACGCACG | -1.5 ± 0.098 | -0.59 ± 0.12
35 | AGGCAGCAAUAUUACGAAAU | -1.8 ± 0.13 | -1.34 ± 0.15
36 | AACAAGCAAUAUUACGUCUA | -0.68 ± 0.053 | 0.247 ± 0.063
37 | GAGUAGCAAUAUUACGAGCA | -2.06 ± 0.21 | 0.532 ± 0.14
38 | AACCAGCAAUAUUACGUGAC | -2.59 ± 0.087 | -1.37 ± 0.1
39 | ACGGAGCAAUAUUACGUUGG | -3.62 ± 0.23 | -2.05 ± 0.17
40 | UUAGAGCAAUAUUACGAACG | -0.913 ± 0.22 | -0.303 ± 0.19
41 | ACAGAGCAAUAUUACGGCGG | -3.41 ± 0.26 | -1.98 ± 0.24
42 | GCUUAGCAAUAUUACGGGAG | -2.42 ± 0.18 | -1.29 ± 0.18
43 | CCCGAGCAAUAUUACGUUGC | -3.75 ± 0.12 | -2.71 ± 0.16
44 | CAACAGCAAUAUUACGCAUU | -3.14 ± 0.091 | -1.79 ± 0.089
45 | CGGGAGCAAUAUUACGAGCG | -1.78 ± 0.18 | -1.19 ± 0.48
46 | ACCCAGCAAUAUUACGAUGC | -1.31 ± 0.06 | 0.13 ± 0.073
47 | AAAAAGCAAUAUUACGGAUU | -0.657 ± 0.068 | -0.635 ± 0.096
48 | ACAAAGCAAUAUUACGGACA | -1.29 ± 0.13 | -0.782 ± 0.11
49 | GGCAAGCAAUAUUACGUGAA | -0.509 ± 0.091 | 0.184 ± 0.11
50 | CUUGAGCAAUAUUACGGUUG | -2.28 ± 0.097 | -1.95 ± 0.14
51 | AACCAGCAAUAUUACGAGUC | -1.82 ± 0.1 | -0.825 ± 0.11
52 | UAAAAGCAAUAUUACGGCCG | 0.132 ± 0.12 | 0.444 ± 0.17

Row | Sequence | self-splicing fitness (ln) (30 °C) | self-splicing fitness (ln) (37 °C)
53 | GCGUAGCAAUAUUACGCCUG | -4.08 ± 0.42 | -3.13 ± 0.37
54 | UUACAGCAAUAUUACGACGG | -0.531 ± 0.097 | 0.113 ± 0.13
55 | CGUGAGCAAUAUUACGCAAC | -2.77 ± 0.36 | -2.18 ± 0.33
56 | UGACAGCAAUAUUACGCCAC | -3.66 ± 0.32 | -1.43 ± 0.27
57 | AAAAAGCAAUAUUACGAUCU | 0.127 ± 0.055 | 0.246 ± 0.075
58 | ACCGAGCAAUAUUACGAGGC | -4.59 ± 0.29 | -3.23 ± 0.33
59 | UGAUAGCAAUAUUACGCGAG | -1.66 ± 0.17 | -0.803 ± 0.13
60 | AGUAAGCAAUAUUACGAGCA | -0.223 ± 0.1 | -0.349 ± 0.11
61 | CUACAGCAAUAUUACGAAUC | -4.32 ± 0.23 | -2.61 ± 0.23
62 | AGGAAGCAAUAUUACGGGGG | – | -1.89 ± 0.36
63 | CUUAAGCAAUAUUACGUCUG | -0.605 ± 0.067 | -0.254 ± 0.08
64 | GGUAAGCAAUAUUACGACAG | -2.56 ± 0.29 | -1.99 ± 0.44
65 | GGCCAGCAAUAUUACGGUCU | -2.82 ± 0.15 | -2.78 ± 0.3
66 | UAGUAGCAAUAUUACGACGA | -0.284 ± 0.18 | 0.242 ± 0.16
67 | UAGUAGCAAUAUUACGCCGG | -1.64 ± 0.21 | -0.466 ± 0.24
68 | GAGUAGCAAUAUUACGUCGU | -3.35 ± 0.29 | -0.572 ± 0.2
69 | CUAGAGCAAUAUUACGCCGG | – | -0.534 ± 0.29
70 | CAAGAGCAAUAUUACGGCGU | -3.47 ± 0.34 | -1.92 ± 0.21
71 | UCAAAGCAAUAUUACGAGGG | -2.11 ± 0.12 | -1.03 ± 0.12
72 | GUGGAGCAAUAUUACGUGUA | -2.68 ± 0.2 | -2.85 ± 0.24
73 | GUGUAGCAAUAUUACGGCAU | -3.48 ± 0.41 | -0.582 ± 0.2
74 | CUUUAGCAAUAUUACGUCUU | -3.41 ± 0.26 | -3.28 ± 0.33
75 | UAUUAGCAAUAUUACGGAAG | -2.63 ± 0.31 | -1.9 ± 0.25
76 | CGAAAGCAAUAUUACGAUAU | -3.42 ± 0.28 | -1.27 ± 0.2
